Results taken from the supplement of paper PMC11780869.

Test system: Bacillus subtilis
Experiment: cleaved RNA product abundance (RNA/gDNA barcode ratio) relative to median wild-type variant (ratio to wild type); higher = more accumulation of the downstream cleavage product
Procedure, shortened: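 Reporter mRNAs (truncated aprE or tetM) carrying barcoded, mutagenized RNase Y cleavage-site windows were made from oligos with a 9% error rate and integrated into the B. subtilis chromosome. Cultures grew in LB at 37°C from OD600 0.0003 to 0.3. Cleaved RNA was gel-selected, reverse transcribed and barcode-sequenced alongside genomic DNA barcodes, with UMI collapsing. Cleaved product abundance is the RNA:gDNA barcode ratio per variant, scaled to the median wild-type variant.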

[1] = experiment (reporter, strain, medium): exp 4a: truncated aprE reporter, strain BJT201 with 2% xylose (RNase J1 expressed), cleavage site: cggR-gapA (positions -7 to +36 mutated)
[2] = experiment (reporter, strain, medium): exp 2b: truncated aprE reporter, strain BJT200, cleavage site: cggR-gapA (positions -7 to +36 mutated)
[3] = experiment (reporter, strain, medium): exp 6: tetM reporter, strain 168, cleavage site: cggR-gapA (positions -7 to +36 mutated)
[4] = experiment (reporter, strain, medium): exp 8a: truncated aprE reporter, strain BJT201 with 2% xylose (RNase J1 expressed), cleavage site: glnRA (positions -5 to +31 mutated)

| Sequence | cleaved RNA product abundance [1] | cleaved RNA product abundance [2] | also measured |
| --- | --- | --- | --- |
| ACAGACGAAGGAGCCGCAAAGAAGTTATAAAGGGATGAATAATCCCTCAAAATAAATATCTCTCACTTATTTAAA | 0.292 |  |  |
| ACAGACGAAGGAGCCGCAAAGGAGTTATTAAGGGATGAATAATCCCTCAATATAAATATCTCTCACTTATTTAAA | 0.982 | 1.06 | cleaved RNA product abundance [3]: 0.911 |
| ACAGACGAAGGAGCCGCAAAGAAGTTATTAAGGGATGAATAATCCCTCTATATACATATCTCTCACTTATTTAAA | 0.226 | 0.248 |  |
| ACAGACGAAGGAGCCGCAAAGAAGTTATTAAGGGATGGATAATTCCTCAATATAAATATCTCTCACTTATTTAAA | 0.58 |  |  |
| ACAGACGAAGGAGCCGCAAAAAAGTCATTAAGGGATGAATAATCCCTCAATATAAATATCTCTCACTTATTTAAA | 0.37 |  |  |
| CGACATGTCCCGCTTCTTTCATTAATACGTTAGCAACTGTTTTGCTATATAAATTTACCTTTTAAGAGGAGGAAT |  |  | cleaved RNA product abundance [4]: 1.02 |
| ACAGACGAAGGAGCCGCAAATAAGTTATTAAGGGATGAATAATCCCTCAAAATAAATATCTCTCACTTATTTAAA | 0.322 | 0.34 |  |
| ACAGACGAAGGAGCCGCAAAAAAGTTATTAAGGTATGAATAATCCATCAATATAAATATCTCTCACTTATTTAAA | 0.23 |  |  |
| ACAGACGAAGGAGCCGCAAAGAAGATTTTAAGGCATGAATAATCCCTCAATATAAATATCTCTCACTTATTTAAA | 0.143 |  |  |
| ACAGACGAAGGAGCCGCAAAGAAGTTATTATGGGATGAATAACCCCTCAATATAAATATCTCTCACTTATTTAAA | 0.194 |  |  |
| ACAGACGAAGGAGCCGCAAAGAAGTTATTAAGGGATGAATAAAACCTCAATATAAATATCTCTCACTTATTTAAA | 0.125 | 0.119 |  |
| CGACATGTCCCGCTTCTTTCATTAATCCGTTGGCAACTGTTTTGCTATATACATTTACTTTTTAAGAGGAGGAAT |  |  | cleaved RNA product abundance [4]: 0.61 |
| CGACATGTCCCGCTTCTTTCATTAATCCGTTAGCAACTGTTTTGCTATATGTATTTACCTTTTAAGAGGAGGAAT |  |  | cleaved RNA product abundance [4]: 0.45 |
| ACAGACGAAGGAGCCGCAAAGAAGTTATTAAGGGATCAATAATCCCTCAATATAAATATCTCTCACTTATTTAAA | 0.878 | 0.832 | cleaved RNA product abundance [3]: 0.996 |
| ACAGACGAAGGAGCCGCAAAGAAGTTATCAAGGGATGAATAATCCCTCATTATAAATATCTCTCACTTATTTAAA |  | 0.216 |  |
| CGACATGTCCCGCTTCTTTCATTAATCCGTTAGCAACTGTTTTGCTATATACACTTATCTTTTAAGAGGAGGAAT |  |  | cleaved RNA product abundance [4]: 0.672 |
| ACAGACGAAGGAGCCGCAAAGAAGTTATTAAGGGATGCATAAGCCCTCAATATAAATATCTCTCACTTATTTAAA | 0.732 |  |  |
| ACAGACGAAGGAGCCGCAAAGAAGTTCTTAAGGGATGAATAATACCTCAATATAAATATCTCTCACTTATTTAAA | 0.14 |  |  |
| ACAGACGAAGGAGCCGCAAAGAAGTTATTAAGGGAGGAATAATCCTTCAATATAAATATCTCTCACTTATTTAAA | 0.283 |  |  |
| ACAGACGAAGGAGCCGCAAAGACGTTATTAAGGGATCAATAATCCCTCAATATAAATATCTCTCACTTATTTAAA | 0.743 |  |  |
| ACAGACGAAGGAGCCGCAAAGAAGTTATTAAGAGATGAATAATCACTCAATATAAATATCTCTCACTTATTTAAA | 0.127 | 0.0955 |  |

| Sequence | cleaved RNA product abundance [1] | cleaved RNA product abundance [2] | also measured |
| --- | --- | --- | --- |
| ACAGACGAAGGAGCCGCAAAGAAGTTATTAAGGCATGAATAATCCCTCAATATAAATAGCTCTCACTTATTTAAA | 0.0902 | 0.0721 |  |
| ACAGACGAAGGAGCCGCAAACAAGTTATTAAGGGTTGAATAATCCCTCAATATAAATATCTCTCACTTATTTAAA | 0.183 |  |  |
| ACAGACGAAGGAGCCGCAGAGAAGTTATTAAGGAATGAATAATCCCTCAATATAAATATCTCTCACTTATTTAAA | 0.143 |  |  |
| CGACATGTCCCGCTTCTTTCATTAATTCGTCAGCAACTGTTTTGCTATATACATTTACCTTTTAAGAGGAGGAAT |  |  | cleaved RNA product abundance [4]: 0.639 |
| ACAGACGAAGGAGCCGCAAAGAAGTGATTAAGGGATGAATAATCCCTCAATATAAAAATCTCTCACTTATTTAAA | 0.728 |  |  |
| ACAGACGAAGGAGCCGCAAAGAAGTTATTAAGCGATGAATAATCCCTCAATAAAAATATCTCTCACTTATTTAAA | 0.0528 |  |  |
| CGACATGTCCCGCTTCTTTCATTAATCCGTTAACAACTGTTTTTCTATATACATTTACCTTTTAAGAGGAGGAAT |  |  | cleaved RNA product abundance [4]: 0.258 |
| ACAGACGAAGGAGCCGCAAAGAAGTTATTAAGGTATGAATAATCCCTCAATATAAATGTCTCTCACTTATTTAAA | 0.107 |  |  |
| ACAGACGAAGGAGCCGCAAAAAACTTATTAAGGGATGAATAATCCCTCAATATAAATATCTCTCACTTATTTAAA | 0.479 |  |  |
| ACAGACGAAGGAGCCGCAAAGAAGTTATAAAGGGATGAATACTCCCTCAATATAAATATCTCTCACTTATTTAAA | 0.287 |  |  |
| ACAGACGAAGGAGCCGCAAAGAAGTTAGTAAGGGATGAATAATCCCTCAATATAAATGTCTCTCACTTATTTAAA |  | 0.187 |  |
| CGACATGTCCCGCTTCTTTCATTACTGCGTTAGCAACTGTTTTGCTATATACATTTACCTTTTAAGAGGAGGAAT |  |  | cleaved RNA product abundance [4]: 1.68 |
| CGACATGTCCCGCTTCTTTCATTATTCCGTTAGCAACTTTTTTGCTATATACTTTTACCTTTTAAGAGGAGGAAT |  |  | cleaved RNA product abundance [4]: 0.558 |
| ACAGACGAAGGAGCCGCAAAGAAGTTATTAAGGAATGAATAATGCCTCAATATAAATATCTCTCACTTATTTAAA | 0.0706 |  |  |
| ACAGACGAAGGAGCCGCAAAGAAGTTATTAAGGTATGAATAATCCCTCAATACAAATATCTCTCACTTATTTAAA |  | 0.0986 |  |
| CGACATGTCCCGCTTCTTTCATTAATCCGTTAGCAACTGTTTTGCTATATACTTTTACCTTTTAAGAGGAGGAAT |  |  | cleaved RNA product abundance [4]: 0.641 |
| ACAGACGAAGGAGCCGCAAAGAAGTTATTAAGAGATGAATAATCTCTCAATATAAATATCTCTCACTTATTTAAA | 0.924 | 0.718 |  |
| ACAGACGAAGGAGCCGCAAAGAAGTTATTAAGGCATGAATAATCCCTCCATATAAATATCTCTCACTTATTTAAA |  | 0.0936 |  |
| CGACATGTCCCGCTTCTTTCATTAATCCGTTAGCAACTGTTTTGATATTTACATTTACCTTTTAAGAGGAGGAAT |  |  | cleaved RNA product abundance [4]: 0.18 |
| ACAGACGAAGGAGCCGCAAAGAAGTTATTAAGGGATGAATAATCACTCAATATAAAGATCTCTCACTTATTTAAA | 0.0885 |  |  |
| ACAGACGAAGGAGCCGCTAAGAAGTTATTAAGGGATGAATAATCCCTAAATATAAATATCTCTCACTTATTTAAA | 0.831 | 0.745 |  |
